Assay: label from the status in PepcDB records
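Note: failed if final PepcDB status was selected cloned or expressed and not failed if soluble or beyond.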

Sequence: MNVIGKVTVLPQLPAEIARLSELAYNLYWSWTPRAQALYRDLSPELWERFQHNPVRLLLEADQDRLNAAAQDPAYLGRYAQVMADFDAYMGKKDTWAARHAPQMKPVAYFSMEYAFHESLPIYSGGLGVLAGDHCKSASDLGLPFTAVGMLFSQGYFRQLFDKDGWQNEAYDELDLTTLPIQPAQSAAGEDIRVSVRIAGREVAVKVWTLQVGRVRVLLLDSNVPDNSEDDRKLTARLYGGNQELRVQQYVLLGVAGIRALRALDVPASVYHMNEGHAALMALERMREYVAAGQDFRTAAELAASSTLFTTHTPVAAGNDAFTYELMDKYIGEWPGLLHAGRDELYALARHDQQWDGHTVPAFSMTVFALSMSRAANGVSELHGEVSRGMWNFLYPGAEENEVPIGHVTNGAHNLTFTSQRMRDLLSTVLPEDWTERLEDETMWQAVEQLTEEQLSNVQREMKREMITFVRGRVREQLLRNGASAADVAATDNLLDEGTLTIGFARRFATYKRATLLLRDKPRLAAIVNNPERPVQFVFAGKAHPADNPGKAFIQEIYRTSQEPEFRGKIVILENYDMNVARHLVQGVDIWLNNPRRPLEASGTSGMKASFNGSPNFSVLDGWWREGYDGTNGWPIGEEREYADLNVQDDADAFDLYQRLEHEIAPRYYGHAQGNASWAHTVRDAIETVSPRFSMQRQVLDYVQQYYLPLGQRGTQLADHGGARARDLAAWKAWVRQQWPHTSISAQANLPATARPGEQVTVSAQVNPAGIRPEELRVEAVLKRGDEVQRYPLAPGEGGQYSAEIPLDDSGLYSVGVRMLPLIDGLSNDLEAGLIKWA
- protein production: failed

Sequence: MNVLDGAALEIGVPTVRTGIAGDGTLISVSGGSGADATPESDRILGALVLDDTHIDAVAVRRRRRGQGIGTALVEAALDRRDRLTAEFDADVRPFYEQLGFDVELLDDEDGRFRGIRK
- protein production: failed

Sequence: MNVSRLCSLYPTLLIPLLFVAGCGLFASSTAPVSRSPESMAREAEEFQSSRRFEDAIAQWRKVKESYISPELITLAEIKIADAQFDSGNYIEAAASYEEFRKLHPNHEKSAYALYRQGLSYFNQIHGFDTDQTPVSNTVTIFESFLRLYPQSEHAEEVRNKLDAARQNQVQYEIYVGQFYYRTEKYTSAIKRLEDALKRYPRSPLHDETLYYLGKAYIKAGDKAGGREAFQRLFNEFRTSKYVDEARSFLDKNF
- protein production: failed

Sequence: MNWGEGEWNSFFHFFTKEFINMSESFKELFEQSIAGAQFYPGAIITAKVIDIDDDFVTLNAGLKSEGIVAVEEFYDKNGELEVKVGDTVEVALDSVEDGHGETLLSREKAKRQEAWRKLSKCHENNETVTGLISGKVKGGFTVEIGSIRAFLPGSLVDVRPVRDPSYLEGKELEFKVIKMDLKRNNIVVSRRAVVEEESSADRQALLESLHDGQELHGIVKNLTDYGAFIDLGGIDGLLHITDISWKRVKHPSEVLSVGQDVKVKVLSFDSERNRVSLGMKQLGNDPWVDLVERYPIGKRLQGKVTNITDYGCFVEIEEGVEGLVHMSEMDWTNKNVHPSKVVSLGDVVDVMVLEIDEERRRISLGMKQCVGNPWQQFASTHNKGEKVKGKIRSITDFGIFIGLDGDIDGLVHLSDISWTVPGEEAVKQFKKGQELEAVILAIDPERERISLGLKQLEGDSFASFAETYTKGSIVKGTVTAVEPKTVTVALAEDVSGTIRVSELSDERVDDATTIVKVGDEVEAKITNIDRKNRTISLSVKAKDAQDEADAIKKYSRTEAASTTLGDLLKEKMASKEGELEHHHHHH
- protein production: not failed

Sequence: MNWIILTIAGCFEVLFTFCMGKVKETTGTEMYLWFTGFLIATLISMLLLVKATHNLPIGTAYAVWTGIGAVGTVLVGILVFKEPAGFWRLFFIVMLIGSIIGLKMVSHG
- protein production: failed

Sequence: MNWKRLVQFYSVPPSQAALALGMIGLGQAWALYVPDIGTPIRPFLASFGALLLAPVLIKYATNPRLFMADIKHPLSGSLMAPMSMALLILTDYLASVAPLIAYPLWCLAVLLHFTMMVLFFGFQLMNFKMSNIVPSWFLYPVGLISSSLAGSQFGHNLFSETLAIMCIGIYFFMLPLVLYRLVFFGSLPRRARPTLAIMAAPVNLSLAAYLVNFPQPDPILTGALAGIAITMTLLIYLCYFRLLRLKFQPSIAAVTFPSVISAIAMHRLTSFFAQSHPQWHWLHDFGFLELSIATVLVVWVSAGYVKMYWPEIVRTPTKQA
- protein production: failed

Sequence: MNYEEIVCDANNLYRAYKASVKTSKWKETTQKFMMNFLRYIFSIQDDLINRTLQNGPTQEFTLFERGRVRPITSIQIRDRIIRHVLCDEILLPEVKKHIIYDNCASIKGRGISHQRDRFEVHLRKYYRLYGNEGWILFGDFSKFYDNIIHEIAKRELLRLFDDDEFIDWLLTQIFDGFKIDVSYMTDEEYATCMTDTFNKLEYRNIPESKLTGEKWMEKSVNIGDQLSQVIGIYYPYRIDNYVKYVRSQKFYGRYMDDWYIMNPSKEELLDLLDHIHQIAEEYGIHINRKKTRIVKISSTYKFLQIKYSLTDSGKVIKRINPKRVTAMRRKLKRLAVKVKNEEISYENVENMFRSWMGGFYKLLSKEQRKNLIGLYEDLFEKSIEIVNKKMIIVDKTR
- protein production: failed

Sequence: MNYGFVKVAAAVPRVKVADCKFNSERLEGLITIAEGKGVQILTFPEMCITGYTCGDLFAQQLLLEQAEMALIQILNSTRQLDIISILGMPVVVNSTVINAAVVIQKGKILGVVPKTYLPNYKEFYEQRWFTSALQVSENSVRLCGQIVPMGNNLLFETAETTFGIEICEDLWATVPPSSSLALQGAEIIFNLSADDEGIGKHNYLCSLISQQSARCISGYVFSSSGFGESTTDVVFAGNGLIYENGYLLARSERFCMEEQLIINEIDVECIRAERRVNTTFAANKANCPGKEAVRISTEFVNSKDLNLTRTFNPHPFVPQGNELNSRCEEIFSIQIAGLAQRLLHTGAKTAVIGISGGLDSTLALLVCVKTFDKLGLSRKDILGITMPGFGTTDRTYHNAIDLMNSLGVSIREISIREACIQHFKDIGHDLNIHDVTYENSQARERTQILMDIANQTWGMVIGTGDLSELALGWATYNGDHMSMYGVNAGIPKTLVKHLVQWVAENGMDETSKATLLDIVDTPISPELEHHHHHH
- protein production: not failed

Sequence: MNYKVLAYITAYNDYFALNRCIDGLINQTYKIDYLLIVDNSSRPIPIQKLGNNLSIEVQHHPENIGVAGGLTLGIQYAIHKKFDFIWLFDQDSTPYENALENLIYFYDKYINKSEIGILSCAVQDRETGQINCGFIYKNYRFYQQQIDSRKAVYECDAVITSGTLLNCHAAKEIGLPNESLFMDAVDFDYCMKLRKQDYKIFTVCNAKINHRFGNSKSIQLFNRTKFIYLYSSLRYFYVHRNHTYLETRLAKNCLFFIISTFYRIFKSFRKIFVILLFEDSQRLLKIYACSKGTVDGLLGKLGKTWT
- protein production: failed

Sequence: MNYSRIAEAIEYIRAHYKEQPGLDEVAEKVHLSPFHFQRIFTEWAGISPKKFLQYISLEHHHHHH
- protein production: failed

Sequence: MNYVELLGYLAMLLVGLSFLMKDVIKLRFVNALGCICFSIYGILIGSFPVAALNGFVACTNIYFLINNNKD
- protein production: failed

Sequence: MNYYGTSMWASDNNTASNSDSSLNLLGILLLASENNKLINNTVLTNLYGVNLMAESTGIGDKTGPSENILASNIISYNLGTGILFDESYGNLIYNNSFDNIWNVEDESLNTWNSSEIGNYWSDYEGEDADGDGVGDTPYLINSHTGSMDYLPVTRSSDFPELEHHHHHH
- protein production: failed

Sequence: MPAASQDNDGGPSQSGGPMADPAPLIDTDPARIGEYTLLGRLGQGGQGVVYLGSAPDGARVAVKTLHRDALDLPGLREQLAEEVEMARRVARFCTAQVLAADLDADPPYVVSEYVEGPSLQAVVRERGPLRGASLERLAVGTLTALAAIHQAGIVHRDFKPANVLMAPGGPRVIDFGIARALEGTAILTSRIAGTPAYMAPEQITGGPLGPAVDMFAWGATLVYAANGRGPFGHGSLKAVVQRVINDEPDFGELSGTLREIAERCLNKDAAQRPTAAETLMLVLGIEGPPPTEEPSTDTAIPVTHQTLVAGAIAAADTGEQESAAELYRSYPPAPPPPHSNVAAQPSPTPPPHPQTASGPQPSLPSTGAQHSGYGYATGPHQSGYGYATGPQQGGYAPPPGPHQHAYPTPHSGNAAIPPHGGPSGPYAPAQPWMPSTGGYPQTSQPYSGQQYQQQAEGTSTAFVLGVVSIAVIAGVLLFILLFLLIGSLG
- protein production: failed

Sequence: MPAFRVPRVRRAQHAEVALGAVLGVMLIGLSVLISRFHLQPVEGVTVLAQLADASLGHNWAFYVVQFATMILLALSANTSFGGLPVLLKLPARDNYLPHVFALKADRQVHRHGVLTLAGVVAALLVFSGGDTNTLVPLFAIGVFIGFTIAQVGMVRHWRAE
- protein production: failed

Sequence: MPAGSDWRTQPPSDYAQWNPAPRMPNQPKPLTTAHHQFAAIVQNSFDAIVSKDVEGNVQSWNPAAEQIFGWTADEMIGNSIRVLIPPDRQHEEDDILQRIRTGEMVPKFETERLHKSGRRIHVAVTVSPLRDPDGRIVGASKIAHDITETVEIRRRLVASEHQFRSLANSIPQLAWIAESDGTVFWYNDRWFDYTGTTLEQLRGSGWTALHHPDHLERVRSKLQHSWDTGEAWEDTFPLRGKDGEYRWFLSRAMPLRDDSGEVWRWFGTNTDITVQRQHEQQIQMLMGEINHRAKNMLAVVQAMVMRTADRSFAESLGARLQALSRNQDLLIKRNWSGTPIGELIESQLAAVNDLIGTRVLIEGERELLLSPVASETIGLAIHELTTNATKYGALSNADGTVRIACEIRHTVDGPKLDLIWHEQGGPPVGEPNRAGFGTVMIDRNPRSALGADVEISYPESGLRWCLNAPLDRLVATP
- protein production: not failed

Sequence: MPAIMPMLWKQPFGNNLWGLKMKKVEKLLIIGIVLISSILLGAMTLAKPAQANASIVIVIDNEVKHRIPLMVEEEMQTYEFKFGEQTGYLEVKNGKVRMLEMPKEICPEGICSETGWIARSSQAIVCLPNKIIVTIQGLDDKNDEIL
- protein production: failed

Sequence: MPAKRRSNARPARAWPTCLSRGSSAVKRVHVAAAVIRDASGKILIARRADTQHQGGLWEFPGGKVEPGEAVEAALARELQEELGIAVTAARPLIKVQHDYPDKQVLLDVWEVSAFSGEPHGAEGQPLAWVTARELADYEFPAANQPIVAAARLPAQYLITPEGLETPTLLRGMQKAVAQGCKLIQLRAPGGYDPQYRDLAVDAVGLCAGKAQLMLKGPFEWLGDFPSAGWHITAAQLRKYASAGRPFGKDRWLAASCHNAEELSLAQQMDVDFVTLSPVQPTQTHPDAQPLGWQQAEQLISGFNKPVYLLGGVGPAECQQAWAAGAQGVAGIRAFWPQD
- protein production: failed

Sequence: MPAPKKALRRSLTVTSAALTALALLSPAALAAPSPSTSPSATPPASMSGVGGARLGKPGTQVDLAGGAPVLPKDLTARSWIVADAESGDVLAAHNAHWELAPASTLKMLFADTLLPKWPKTTKRKVQVSDLAGIGSGSSMVGIKEEETYTVHDLWLGVFLRSGNDAVHVLSAMNDGVEKTVADMNAHAKELQAGDTTVVSPDGYDMPGQVSSAYDLTLFARSGLQKKDFREYASTVRAKFPGETKKDKKGKTSREPFEIQNTNRLLAGDADVEVYPGIAGVKNGYTTNAGNTFTGVAEQGGKVLLVTVMHPAEDKHNEVYKETARLFDWGFRAAGKVRPVGELVRPRSATAASPSAEASGEAGGTGKGGAGTKPVAGAAAGDGAGGAGVAAGIAAGVLALLAGGAFLINRKWPLPDLVRRRTRP
- protein production: failed

Sequence: MPASETQGGPPPDDHTDAEPPPPLPEQSDFADAVLAAMPDPVFVFGPQNTLAWGNPPLRQAVGHSAAALRGKSLPELFGKGDAAAVEQALDAVRAGRDTATAEVALLPREGPPRPCTFTARPLSGDVGPPNCVVGIAR
- protein production: failed

From a protein production outcome set (Wang et al. 2014)
